According to PMC11917138, “A naturally occurring standalone TrpB enzyme provides insights into allosteric communication within tryptophan synthase” (Protein Science : A Publication of the Protein Society, 2025):
Values belong to the molecule of their own block, whether it stands above or below them.

Legend:
[1] = target: plTrpB, tryptophan synthase β subunit (TrpB) from Pelodictyon luteolum (Pelodictyon luteolum); assay: SEC; analytical SEC, Superdex200 increase 10/300 GL; plTrpA 75 μM, plTrpB or plTrpB-con 50 μM, alone or mixed; 50 mM potassium phosphate pH 7.5, 300 mM KCl, 75 mM L-serine, 25°C
[2] = target: plTrpB, tryptophan synthase β subunit (TrpB) from Pelodictyon luteolum (Pelodictyon luteolum)
[3] = target: plTrpB‐con, plTrpB with the six LBCA-Res6 residues replaced by consensus residues (Pelodictyon luteolum)
[4] = target: plTrpB, tryptophan synthase β subunit (TrpB) from Pelodictyon luteolum (Pelodictyon luteolum); remark: listed apart in the source
[5] = target: plTrpB‐con, plTrpB with the six LBCA-Res6 residues replaced by consensus residues (Pelodictyon luteolum); remark: listed apart in the source
[6] = target: plTrpB, tryptophan synthase β subunit (TrpB) from Pelodictyon luteolum (Pelodictyon luteolum); assay: activity titration; apparent Kd; varying plTrpA added to 2 μM plTrpB or plTrpB-con, TrpB reaction rate read at 290 nm; 30°C, 50 mM potassium phosphate pH 7.5, 180 mM KCl, 40 μM PLP, 75 mM L-serine, 1 mM indole; hyperbolic fit; duplicates
[7] = target: plTrpB‐con, plTrpB with the six LBCA-Res6 residues replaced by consensus residues (Pelodictyon luteolum); assay: as above
[8] = substrate: c1ccc2[nH]ccc2c1; assay: purified protein; assay type: biochemical, Pelodictyon luteolum; conditions: saturating L-serine, 50 mM potassium phosphate pH 7.5, 180 mM KCl, 40 μM PLP, 30°C
[9] = 1.5-fold molar excess of plTrpA

- stoichiometry N [1]: 2
Molecule: plTrpB, tryptophan synthase β subunit (TrpB) from Pelodictyon luteolum (from UniProt A0A1G7SST0 1-406) (enzyme)

- k cat of the TrpB reaction of plTrpB with a 1.5-fold molar excess of plTrpA, 30°C [2]: 0.93 s⁻¹
- k cat of the TrpB reaction of plTrpB-con with a 1.5-fold molar excess of plTrpA, 30°C [3]: 0.21 s⁻¹
- fold activation of k cat of plTrpB by plTrpA [4]: 2.7 fold
- fold activation of k cat/K M ^Ind of plTrpB by plTrpA [4]: 1.6 fold
- fold activation of k cat/K M ^Ser of plTrpB by plTrpA [4]: 9.8 fold
- fold activation of k cat of plTrpB-con by plTrpA [5]: 23 fold
- fold activation of k cat/K M ^Ind of plTrpB-con by plTrpA [5]: 3.6 fold
- fold activation of k cat/K M ^Ser of plTrpB-con by plTrpA [5]: > 10000 fold
- Kd [6]: 8.5 µM
- Kd [7]: 9.9 µM
Molecule: plTrpA, tryptophan synthase α subunit (TrpA) from Pelodictyon luteolum (from UniProt A0A1G7SSP5 1-275) (enzyme)

B1: plTrpB (Pelodictyon luteolum DSM 273) (protein)
chain: MSTTAYSAPDSAGKFGAFGGRFTPETLMQNAAGLEAEYLKAKSDPEFQRTLEGLLGDYVGRPTPLYHAEGLSGMLGGAEVWLKREDLCHTGAHKINNALGQVLLARRMGKRRVIAETGAGQHGVATATVCALFNLQCVVYMGEEDIRRQAPNVARMKLLGAEVRPVSSGSRTLKDATSEAIRDWMNNPEETFYIIGSVVGMHPYPMIVRDFQAVIGRETRRQILDKAGRLPDVITACIGGGSNAVGMFYDFLPDAGSIELIGVEAAGEGLDRRHAASLTMGSPGVLHGAMTMLLQNEDGQIQEAHSISAGLDYPGVGPEHCHLQELGLVKYTSVTDADALSALRTLAETEGIICALESAHAVRYAITRAPEMAKDKIIIVNLSGRGDKDMGTIMEELNL
notes: full-length, C-terminal His6-tag kept, codon-optimized gene in pET21a, E. coli BL21 Gold (DE3); beta-beta dimer
- Km ([8]; no plTrpA): 39 ± 7 µM
- kcat ([8]; no plTrpA): 0.35 ± 0.02 s⁻¹
- kcat/Km ([8]; no plTrpA): 8970 ± 1720 M⁻¹ s⁻¹

B2: plTrpA:plTrpB (Pelodictyon luteolum DSM 273) (protein)
chain: B1 chain
notes: both full-length with C-terminal His6-tag, E. coli BL21 Gold (DE3); alpha-beta-beta-alpha complex, partly formed; with Tryptophan synthase alpha chain
- Km [8, 9]: 65 ± 7 µM
- kcat [8, 9]: 0.93 ± 0.21 s⁻¹
- kcat/Km [8, 9]: 14300 ± 3510 M⁻¹ s⁻¹
